B1: Azoarcus group I ribozyme (parent)
chain: GUGCCUUGCGCCGGGAAACCACGCAAGGGAUGGUGUCAAAUUCGGCGAAACCUAAGCGCCCGCCCGGGCGUAUGGCAACGCCGAGCCAAGCUUCGGCGCCUGCGCCGAUGAAGGUGUAGAGACUAGACGGCACCCACCUAAGGCAAACGCUAUGGUGAAGGCAUAGUCCAGGGAGUGGCGAAAGUCACACAAACCGG

Experimental findings from the RNAGym collection of RNA variant scans (doi:10.1093/molbev/msab373) are described below.

The series covers variants of B1. Nature of the series: reverse-splicing fitness (ratio to wild type); higher = more active; in vitro selection; Mg2+ level not given. In short, it runs like this: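 An in vitro group I ribozyme library with randomized positions was T7-transcribed and gel-purified. In triplicate, 10 pmol RNA in EPPS pH 7.5 was reacted with 50 pmoles of a 30-nt RNA substrate for 1 h at 37 °C across several added MgCl2 levels (1–48 mM), then stopped with EDTA. Products were reverse transcribed from a substrate-complementary primer, PCR-amplified and sequenced (HiSeq 4000). Fitness is a variant's read proportion after selection over that before, normalised to wild type.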
For GUGCCUUGCGCCGGGAAACCACGCAAGGGAUGGUGUCAAAUUCGGCGAAACCUAAGCGCCCGCCCGGGCGUAUGGCAACGCAGAGCCAAGCUUCGGCGCCUGCGCCGAUGAAGGUGUAGGGACUAGACGGCACCCACCUAAGGCAAACGUUAUGGUGAAGGCAUAGUCCAGGGAGCGGCGAAAGUCACACAAACCGG, the reverse-splicing fitness amounted to 0.015.
With GUGCCUUGCGCCGGGAAACCACGCAAGGGAUGGUGUCAAAUUCGGCGAAACCUAAGCGCCCGCCCGGGCGUAUGGCAACGCUGAGCCAAGCUUCGGCGCCUGCGCCGAUGCAGGUGUAGCGACUAGACGGCACCCACCUAAGGCAAACGUUAUGGUGAAGGCAUAGUCCAGGGAGAGGCGAAAGUCACACAAACCGG, the reverse-splicing fitness came to 0.00888.
Then GUGCCUUGCGCCGGGAAACCACGCAAGGGAUGGUGUCAAAUUCGGCGAAACCUAAGCGCCCGCCCGGGCGUAUGGCAACGCAGAGCCAAGCUUCGGCGCCUGCGCCGAUGUAGGUGUAGAGACUAGACGGCACCCACCUAAGGCGAACGCUAUGGUGAAGGCAUAGUCGAGGGAGUGGCGAAAGUCACACAAACCGG, with 0.0102; and GUGCCUUGCGCCGGGAAACCACGCAAGGGAUGGUGUCAAAUUCGGCGAAACCUAAGCGCCCGCCCGGGCGUAUGGCAACGCUGAGCCAAGCUUCGGCGCCUGCGCCGAUGUAGGUGUAGAGACUAGACGGCACCCACCUAAGGCUAACGAUAUGGUGAAGGCAUAGUCCAGGGAGAGGCGAAAGUCACACAAACCGG, with 0.0154.
As for GUGCCUUGCGCCGGGAAACCACGCAAGGGAUGGUGUCAAAUUCGGCGAAACCUAAGCGCCCGCCCGGGCGUAUGGCAACGCCGAGCCAAGCUUCGGCGCCUGCGCCGAUGAAGGUGUAGCGACUAGACGGCACCCACCUAAGGCAAACGAUAUGGUGAAGGCAUAGUCAAGGGAGCGGCGAAAGUCACACAAACCGG, the figure is 0.011; as for GUGCCUUGCGCCGGGAAACCACGCAAGGGAUGGUGUCAAAUUCGGCGAAACCUAAGCGCCCGCCCGGGCGUAUGGCAACGCCGAGCCAAGCUUCGGCGCCUGCGCCGAUGAAGGUGUAGUGACUAGACGGCACCCACCUAAGGCCAACGAUAUGGUGAAGGCAUAGUCGAGGGAGAGGCGAAAGUCACACAAACCGG, 0.00491; as for GUGCCUUGCGCCGGGAAACCACGCAAGGGAUGGUGUCAAAUUCGGCGAAACCUAAGCGCCCGCCCGGGCGUAUGGCAACGCGGAGCCAAGCUUCGGCGCCUGCGCCGAUGCAGGUGUAGGGACUAGACGGCACCCACCUAAGGCGAACGCUAUGGUGAAGGCAUAGUCGAGGGAGCGGCGAAAGUCACACAAACCGG, 0.0288.
Take GUGCCUUGCGCCGGGAAACCACGCAAGGGAUGGUGUCAAAUUCGGCGAAACCUAAGCGCCCGCCCGGGCGUAUGGCAACGCUGAGCCAAGCUUCGGCGCCUGCGCCGAUGCAGGUGUAGGGACUAGACGGCACCCACCUAAGGCGAACGUUAUGGUGAAGGCAUAGUCCAGGGAGGGGCGAAAGUCACACAAACCGG: the reverse-splicing fitness is 0.00547.
On to GUGCCUUGCGCCGGGAAACCACGCAAGGGAUGGUGUCAAAUUCGGCGAAACCUAAGCGCCCGCCCGGGCGUAUGGCAACGCGGAGCCAAGCUUCGGCGCCUGCGCCGAUGGAGGUGUAGAGACUAGACGGCACCCACCUAAGGCUAACGUUAUGGUGAAGGCAUAGUCCAGGGAGAGGCGAAAGUCACACAAACCGG, for which the reverse-splicing fitness is 0.154.
As to GUGCCUUGCGCCGGGAAACCACGCAAGGGAUGGUGUCAAAUUCGGCGAAACCUAAGCGCCCGCCCGGGCGUAUGGCAACGCUGAGCCAAGCUUCGGCGCCUGCGCCGAUGUAGGUGUAGUGACUAGACGGCACCCACCUAAGGCAAACGCUAUGGUGAAGGCAUAGUCGAGGGAGUGGCGAAAGUCACACAAACCGG, the reverse-splicing fitness stood at 0.00397.
Then GUGCCUUGCGCCGGGAAACCACGCAAGGGAUGGUGUCAAAUUCGGCGAAACCUAAGCGCCCGCCCGGGCGUAUGGCAACGCAGAGCCAAGCUUCGGCGCCUGCGCCGAUGAAGGUGUAGCGACUAGACGGCACCCACCUAAGGCGAACGAUAUGGUGAAGGCAUAGUCUAGGGAGUGGCGAAAGUCACACAAACCGG, with 0.0123; and GUGCCUUGCGCCGGGAAACCACGCAAGGGAUGGUGUCAAAUUCGGCGAAACCUAAGCGCCCGCCCGGGCGUAUGGCAACGCCGAGCCAAGCUUCGGCGCCUGCGCCGAUGAAGGUGUAGCGACUAGACGGCACCCACCUAAGGCUAACGUUAUGGUGAAGGCAUAGUCAAGGGAGGGGCGAAAGUCACACAAACCGG, with 0.00474; and GUGCCUUGCGCCGGGAAACCACGCAAGGGAUGGUGUCAAAUUCGGCGAAACCUAAGCGCCCGCCCGGGCGUAUGGCAACGCCGAGCCAAGCUUCGGCGCCUGCGCCGAUGAAGGUGUAGCGACUAGACGGCACCCACCUAAGGCCAACGUUAUGGUGAAGGCAUAGUCUAGGGAGAGGCGAAAGUCACACAAACCGG, with 0.0792.
As for GUGCCUUGCGCCGGGAAACCACGCAAGGGAUGGUGUCAAAUUCGGCGAAACCUAAGCGCCCGCCCGGGCGUAUGGCAACGCGGAGCCAAGCUUCGGCGCCUGCGCCGAUGAAGGUGUAGGGACUAGACGGCACCCACCUAAGGCGAACGGUAUGGUGAAGGCAUAGUCUAGGGAGGGGCGAAAGUCACACAAACCGG, the figure is 0.00717; as for GUGCCUUGCGCCGGGAAACCACGCAAGGGAUGGUGUCAAAUUCGGCGAAACCUAAGCGCCCGCCCGGGCGUAUGGCAACGCUGAGCCAAGCUUCGGCGCCUGCGCCGAUGAAGGUGUAGUGACUAGACGGCACCCACCUAAGGCAAACGGUAUGGUGAAGGCAUAGUCGAGGGAGCGGCGAAAGUCACACAAACCGG, 0.00212.
